Test results from US6071733.

Tests used:
[1] = molecular target: polypeptide Hex3, polypeptide of subunit (B) of the hexaprenyl diphosphate synthetase of Micrococcus luteus B-P 26 (Micrococcus luteus B-P 26)
[2] = molecular target: polypeptide GERC3, subunit of the heptaprenyl diphosphate synthetase of Bacillus subtilis (ATCC 6633) (Bacillus subtilis (ATCC 6633)) (UniProt P31114)
[3] = molecular target: polypeptide Hep2, subunit of the thermoresistant heptaprenyl diphosphate synthetase of Bacillus stearothermophilus (ATCC 10149) (Bacillus stearothermophilus (ATCC 10149))
[4] = molecular target: Hex2, protein encoded by hex2 of Micrococcus luteus B-P 26 (Micrococcus luteus B-P 26)

Activity (dpm), prenyl diphosphate (HexPP) synthetase activity of mixed crude homogenates [1]	Activity (dpm), HepPS activity of proteins mixed in equal amounts [2]	Activity (dpm), HepPS activity of proteins mixed in equal amounts [3]	Activity (dpm), prenyl diphosphate (HexPP) synthetase activity of mixed crude homogenates [4]	Substance
0 dpm				Hex2, protein encoded by hex2 of Micrococcus luteus B-P 26
	136 dpm	7920 dpm		polypeptide GERC1, subunit of the heptaprenyl diphosphate synthetase of Bacillus subtilis (ATCC 6633) (enzyme)
		0 dpm		polypeptide Hep1, subunit of the heptaprenyl diphosphate synthetase of Bacillus stearothermophilus (ATCC 10149) (from UniProt P55784) (enzyme)
2920 dpm			0 dpm	polypeptide Hex1, polypeptide of subunit (A) of the hexaprenyl diphosphate synthetase of Micrococcus luteus B-P 26 (enzyme)
